Molecular target: the molecule itself
Experiment: SEC-MALS

B1: human ELP1 with a C-terminal 3xFLAG tag (natural protein, UniProt O95163 1-1332, looked up)
chain: MRNLKLFRTLEFRDIQGPGNPQCFSLRTEQGTVLIGSEHGLIEVDPVSREVKNEVSLVAEGFLPEDGSGRIVGVQDLLDQESVCVATASGDVILCSLSTQQLECVGSVASGISVMSWSPDQELVLLATGQQTLIMMTKDFEPILEQQIHQDDFGESKFITVGWGRKETQFHGSEGRQAAFQMQMHESALPWDDHRPQVTWRGDGQFFAVSVVCPETGARKVRVWNREFALQSTSEPVAGLGPALAWKPSGSLIASTQDKPNQQDIVFFEKNGLLHGHFTLPFLKDEVKVNDLLWNADSSVLAVWLEDLQREESSIPKTCVQLWTVGNYHWYLKQSLSFSTCGKSKIVSLMWDPVTPYRLHVLCQGWHYLAYDWHWTTDRSVGDNSSDLSNVAVIDGNRVLVTVFRQTVVPPPMCTYQLLFPHPVNQVTFLAHPQKSNDLAVLDASNQISVYKCGDCPSADPTVKLGAVGGSGFKVCLRTPHLEKRYKIQFENNEDQDVNPLKLGLLTWIEEDVFLAVSHSEFSPRSVIHHLTAASSEMDEEHGQLNVSSSAAVDGVIISLCCNSKTKSVVLQLADGQIFKYLWESPSLAIKPWKNSGGFPVRFPYPCTQTELAMIGEEECVLGLTDRCRFFINDIEVASNITSFAVYDEFLLLTTHSHTCQCFCLRDASFKTLQAGLSSNHVSHGEVLRKVERGSRIVTVVPQDTKLVLQMPRGNLEVVHHRALVLAQIRKWLDKLMFKEAFECMRKLRINLNLIYDHNPKVFLGNVETFIKQIDSVNHINLFFTELKEEDVTKTMYPAPVTSSVYLSRDPDGNKIDLVCDAMRAVMESINPHKYCLSILTSHVKKTTPELEIVLQKVHELQGNAPSDPDAVSAEEALKYLLHLVDVNELYDHSLGTYDFDLVLMVAEKSQKDPKEYLPFLNTLKKMETNYQRFTIDKYLKRYEKAIGHLSKCGPEYFPECLNLIKDKNLYNEALKLYSPSSQQYQDISIAYGEHLMQEHMYEPAGLMFARCGAHEKALSAFLTCGNWKQALCVAAQLNFTKDQLVGLGRTLAGKLVEQRKHIDAAMVLEECAQDYEEAVLLLLEGAAWEEALRLVYKYNRLDIIETNVKPSILEAQKNYMAFLDSQTATFSRHKKRLLVVRELKEQAQQAGLDDEVPHGQESDLFSETSSVVSGSEMSGKYSHSNSRISARSSKNRRKAERKKHSLKEGSPLEDLALLEALSEVVQNTENLKDEVYHILKVLFLFEFDEQGRELQKAFEDTLQLMERSLPEIWTLTYQQNSATPVLGPNSTANSIMASYQQQKTSVPVLDAELFIPPKINRRTQWKLSLLD
  stoichiometry N: 2
